Patent US20050260661A1, “Assays for the identification of modulators of MHC class II expression” (priority 2004, published 2005)

Assays:
[1] = biological target: T1, interaction between CIITA and Flag-RFXANK (Homo sapiens, UniProt P33076); test: CIITA/RFXANK interaction assay, competition with untagged RFXANK; type: binding; details: FIG. 7
T1 construct: made in house; host or cells: Sf9 insect cells (recombinant baculovirus); CIITA co-infected with a BirA baculovirus
T1 sequence (P33076 1-1130): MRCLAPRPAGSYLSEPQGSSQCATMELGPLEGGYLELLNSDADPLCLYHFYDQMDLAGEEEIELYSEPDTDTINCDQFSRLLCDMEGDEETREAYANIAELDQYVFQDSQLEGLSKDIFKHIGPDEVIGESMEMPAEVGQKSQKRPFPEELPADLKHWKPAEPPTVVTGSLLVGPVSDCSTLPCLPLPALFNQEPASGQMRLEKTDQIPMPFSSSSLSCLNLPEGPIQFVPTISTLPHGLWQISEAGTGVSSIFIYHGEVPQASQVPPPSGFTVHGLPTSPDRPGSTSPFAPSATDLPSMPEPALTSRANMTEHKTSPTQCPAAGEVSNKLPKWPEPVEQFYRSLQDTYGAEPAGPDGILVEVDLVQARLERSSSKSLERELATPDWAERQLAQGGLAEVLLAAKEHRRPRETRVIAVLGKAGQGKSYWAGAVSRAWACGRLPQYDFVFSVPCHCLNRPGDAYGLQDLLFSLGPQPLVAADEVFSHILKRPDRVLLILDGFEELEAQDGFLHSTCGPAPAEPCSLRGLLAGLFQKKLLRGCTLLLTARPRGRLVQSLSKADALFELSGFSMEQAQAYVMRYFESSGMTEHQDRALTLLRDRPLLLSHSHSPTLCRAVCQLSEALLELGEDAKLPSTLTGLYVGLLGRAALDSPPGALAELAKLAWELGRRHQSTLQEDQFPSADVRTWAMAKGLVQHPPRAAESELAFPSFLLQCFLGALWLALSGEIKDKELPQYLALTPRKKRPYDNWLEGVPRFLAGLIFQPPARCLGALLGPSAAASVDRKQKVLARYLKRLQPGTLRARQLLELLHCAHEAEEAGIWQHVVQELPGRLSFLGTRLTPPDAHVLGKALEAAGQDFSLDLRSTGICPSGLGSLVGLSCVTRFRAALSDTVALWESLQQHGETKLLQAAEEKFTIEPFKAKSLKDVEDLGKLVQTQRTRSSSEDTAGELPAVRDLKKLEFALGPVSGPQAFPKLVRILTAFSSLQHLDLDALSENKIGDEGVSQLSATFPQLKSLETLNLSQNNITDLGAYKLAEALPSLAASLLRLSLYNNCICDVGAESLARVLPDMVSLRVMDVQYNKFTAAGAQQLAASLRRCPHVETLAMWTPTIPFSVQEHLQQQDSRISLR
Description: Plasmids. The CIITA gene sequence was cloned into a modified pBAC-2 cp vector (Novagen) with a biotinylation tag inserted at the 5′ end of the gene. The RFXANK gene sequence containing a Flag tag at its N-terminus was cloned into a pFBHT vector (Invitrogen). These plasmids were used to generate recombinant baculoviruses according to standard procedures. Protein production: Sf9 cells grown in SF-900II medium (Invitrogen) were infected at MOI of 10 for 72 h before harvesting. To obtain in vivo biotinylated CIITA, Sf9 cells were co-infected with an E. coli biotin ligase expressing baculovirus (BirA gene) at a MOI of 1. Protein were purified using metal chelating affinity chromatography on HiTrap chelating column (Pharmacia). Purified fractions were pooled and quantified using ESL protein quantification kit (Roche) and the extent of CIITA biotinylation was estimated by pulldown experiments with Streptavidin-coated magnetic beads followed by PAGE analysis.
Assay. […] Wells were washed 5 times with 200 μl of wash solution (PBS; 0.05% Tween 20) and the adequate substrates for HRP were added to the well for either colorimetry, fluorescence or luminescence detection. […]

Biotinylated-CIITA = biological target: T2, Biotinylated-CIITA (UniProt P33076 1-1130, biotin on the biotinylation tag (in vivo biotinylation by co-expressed E. coli biotin ligase BirA; level close to 100%)); test: solid-phase plate assay: biotinylated CIITA on a streptavidin well, Flag-RFXANK detected with M2:HRP, colorimetric; assay and negative control each performed 48 times
T2 construct: Made in Sf9 cells from a modified pBAC-2cp baculovirus vector; also called recombinant biotinylated-CIITA; not shown: biotinylation tag inserted at the 5' end of the gene
T2 sequence (looked up): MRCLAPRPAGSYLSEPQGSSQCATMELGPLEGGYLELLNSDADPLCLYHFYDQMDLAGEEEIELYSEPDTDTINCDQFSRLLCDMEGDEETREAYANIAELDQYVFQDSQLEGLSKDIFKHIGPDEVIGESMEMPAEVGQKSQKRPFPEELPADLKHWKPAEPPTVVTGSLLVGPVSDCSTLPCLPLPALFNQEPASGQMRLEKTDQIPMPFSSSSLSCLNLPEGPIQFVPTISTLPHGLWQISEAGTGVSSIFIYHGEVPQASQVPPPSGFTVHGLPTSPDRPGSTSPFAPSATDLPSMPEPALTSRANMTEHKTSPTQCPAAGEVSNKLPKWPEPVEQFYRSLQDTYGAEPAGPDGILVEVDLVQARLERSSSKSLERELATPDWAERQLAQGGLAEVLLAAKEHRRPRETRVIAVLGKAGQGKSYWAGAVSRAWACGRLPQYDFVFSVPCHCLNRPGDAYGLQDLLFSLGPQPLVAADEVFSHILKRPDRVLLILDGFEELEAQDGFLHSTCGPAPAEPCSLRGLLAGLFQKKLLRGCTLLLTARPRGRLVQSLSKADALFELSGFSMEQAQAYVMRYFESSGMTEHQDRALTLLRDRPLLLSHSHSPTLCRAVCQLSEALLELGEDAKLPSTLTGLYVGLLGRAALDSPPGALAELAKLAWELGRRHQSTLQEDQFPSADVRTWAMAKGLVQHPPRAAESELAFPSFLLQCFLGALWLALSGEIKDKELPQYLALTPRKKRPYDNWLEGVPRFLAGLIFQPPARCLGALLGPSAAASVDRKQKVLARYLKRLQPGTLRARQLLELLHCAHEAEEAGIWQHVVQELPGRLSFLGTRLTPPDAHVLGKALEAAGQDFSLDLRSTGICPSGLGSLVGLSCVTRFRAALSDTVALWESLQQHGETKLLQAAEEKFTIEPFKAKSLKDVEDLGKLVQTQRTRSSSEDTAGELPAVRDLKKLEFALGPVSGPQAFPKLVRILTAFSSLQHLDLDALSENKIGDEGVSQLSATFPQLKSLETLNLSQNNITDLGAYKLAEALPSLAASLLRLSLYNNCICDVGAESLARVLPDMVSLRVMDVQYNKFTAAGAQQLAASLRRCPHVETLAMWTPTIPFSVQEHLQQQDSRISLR
Description: Assay. Biotinylated-CIITA (0.5 μg) and 0.8 μg of Flag-RFXANK in 100 μl of assay buffer (50 mM Hepes pH7.8; 10% glycerol; 5 mM MgCl₂; 0.1 mM EDTA; 0.01% NP-40; 200 mM KCl; 0.5% BSA; 0.1% Tween 20; 2 mM DTT) were incubated in a streptavidin-coated microwell for 2 h at room temperature. Wells containing no protein, only biotinylated CIITA or Flag RFXANK were included as controls. Wells were washed 5 times with 200 μl of wash solution (PBS; 0.05% Tween 20). 100 μl of Assay Buffer containing 0.5 μg/ml M2:HRP antibody (Sigma) was added to each well and incubated for 1 h at room temperature. Wells were washed 5 times with 200 μl of wash solution (PBS; 0.05% Tween 20) and the adequate substrates for HRP were added to the well for either colorimetry, fluorescence or luminescence detection.
To examine its reproducibility, the assay and negative control were performed 48 times. […] Increasing amounts of RFXANK were added to the wells containing biotinylated CIITA and Flag-RFXANK in the same assay as described above.

B1: RFXANK having an N-terminal Flag tag (Flag-RFXANK) (other, UniProt O14593 1-260, looked up)
chain: MELTQPAEDLIQTQQTPASELGDPEDPGEEAADGSDTVVLSLFPCTPEPVNPEPDASVSSPQAGSSLKHSTTLTNRQRGNEVSALPATLDSLSIHQLAAQGELDQLKEHLRKGDNLVNKPDERGFTPLIWASAFGEIETVRFLLEWGADPHILAKERESALSLASTGGYTDIVGLLLERDVDINIYDWNGGTPLLYAVRGNHVKCVEALLARGADLTTEADSGYTPMDLAVALGYRKVQQVIENHILKLFQSNLVPADPE
notes: not shown: Flag tag at the N-terminus
reduction of signal of the CIITA/Flag-RFXANK interaction ([1]; equivalent amounts of Flag-RFXANK and RFXANK): approximately 50% | competition of Flag-RFXANK for binding to CIITA ([1]; increasing amounts of RFXANK added to wells containing biotinylated CIITA and Flag-RFXANK): specifically competed by RFXANK for binding to CIITA in a dose-dependent manner | signal to background ratio (S/B) (Biotinylated-CIITA): 11.8
